Measured values published in patent CN111363043A (FUZHOU MAIXIN BIOTECHNOLOGY DEV CO LTD, dated 2020).

Target: T1, CD20蛋白 (UniProt P11836, 297 amino acids) (human, UniProt P11836 1-297)
T1 construct: whole, on cells; Endogenous CD20 in formalin-fixed paraffin tissue sections (B-cell lymphoma, tonsil, appendix) detected by IHC. 'Human' is stated for CD20 in the abstract; The species of the tissues is not explicitly stated
T1 sequence (looked up): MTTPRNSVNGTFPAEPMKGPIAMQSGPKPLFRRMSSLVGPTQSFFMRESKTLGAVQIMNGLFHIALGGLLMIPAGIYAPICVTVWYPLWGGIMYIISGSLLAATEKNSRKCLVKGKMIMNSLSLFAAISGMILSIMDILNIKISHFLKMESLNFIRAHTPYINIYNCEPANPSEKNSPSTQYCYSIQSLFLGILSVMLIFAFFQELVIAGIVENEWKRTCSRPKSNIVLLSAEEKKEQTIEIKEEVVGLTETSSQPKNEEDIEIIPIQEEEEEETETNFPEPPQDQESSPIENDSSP
Test: IHC, appendix tissue (Fig. 5)

binding result: binds
B1: 抗CD20蛋白单克隆抗体 (secreted by mouse hybridoma cell line AbM58020-32A8-PU, CGMCC NO.17491) (antibody, V domains shown)
VH: EVKLQESGPSLVKPGASVKISCKASGNTFTDYYMNWVRQSHGQSLEWIGRFIPSTAKTNYNHKFKDKATLTLDTSLSTAYMQLNSLTSEDSAVYYCRSDFAFWGQGTLVTVSA
VL: DILMTQSPLSLSITIGQPASISCKSSQSLLYSNGKTYLNWLLQRPGQSPKRLIYIVSKLDSGVPDRFTGSGSGTDFTLKISRVEAEDLGVYYCGQGTHYPPTFGGGTKLEIK
notes: also called AbM58020-32A8-PU的CD20; AbM58020-32A8-PU杂交瘤分泌抗体
